The data set is described as follows: protein stability index of a GFP-peptide fusion (GPS, HEK-293T) (PSI 1-6); higher = more stable. The settings on record: c terminus: a fixed tail appended.

Experimental findings from the supplement of paper PMC10567573 are described below.

± gives the standard deviation.
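Further: 24-mer peptide tiles fused after GFP, lentivirally expressed, FACS-sorted into six equal bins by GFP/DsRed ratio, decoded by Illumina sequencing, PSI is the read-weighted mean bin number.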

In the case of ESRIVEQENAIQTMELRNYFSLYC [SNX8], the protein stability index came to 2.62 ± 0.3 (treatment: DMSO) and 2.61 ± 0.19 (treatment: MLN4924 1 uM, 8 h).
For ESSSDSGSSDSEEERATRLAELQE [BRD3], the protein stability index runs as follows: (treatment: DMSO) 5.5 ± 0.25; (treatment: MLN4924 1 uM, 8 h) 5.51 ± 0.063.
ESTFMYLTLDLPTAPLYKDEKEQL [USP39]: the protein stability index runs as follows: (treatment: DMSO) 3.4 ± 0.2; (treatment: MLN4924 1 uM, 8 h) 3.55 ± 0.15.
The corresponding values for ETFIVPDSFLVALDMDDGTLSFIV [SPSB1] are 2.66 ± 0.33 and 2.58 ± 0.54.
The corresponding values for ETILNAFKMLDPDGKGKINKEYIK [MYL5] are 2.96 ± 0.31 and 3.17 ± 0.41.
For the sequence EVANFYYEADCLAAAYGGKAAPAA [CEBPB], the protein stability index is, setting by setting: (treatment: DMSO) 2.91 ± 0.38; (treatment: MLN4924 1 uM, 8 h) 2.83 ± 0.38.
The corresponding values for EVEWTEDLALDLGPQSRELTLKVL [C2CD2L] are 3.44 ± 0.19 and 3.6 ± 0.36.
Taken in the same sequence, the figures for EVITAAEFHPHHCNTFVYSSSKGT [PPP2R2B] were 3.28 ± 0.3 and 3.35 ± 0.56.
The corresponding values for EVLIGAGYSTPADIWSTACMAFEL [SRPK2] are 3.14 ± 1.2 and 2.61 ± 0.88.
With FAAPSPATTASPAKVDSSGVIDLF [SNAP91], the protein stability index reads like this: (treatment: DMSO) 2.93 ± 0.38; (treatment: MLN4924 1 uM, 8 h) 3.25 ± 0.52.
Taken in the same sequence, the figures for FADGVLSGEELHELFHTIDTHNTN [NECAB1] were 3.12 ± 0.38 and 3.68 ± 0.21.
The corresponding values for FAQALGCVLYACFILGRLCVPVFA [SOAT2] are 3.03 ± 0.6 and 2.64 ± 0.55.
Taken in the same sequence, the figures for FARVKKGADGVMRTMAPEKLLKSM [SNAP91] were 2.7 ± 0.18 and 3.05 ± 0.42.
As to FASDGDSGTCSPLRHSFQKQQREK [ADD1], the protein stability index reads like this: (treatment: DMSO) 3.98 ± 0.41; (treatment: MLN4924 1 uM, 8 h) 4.17 ± 0.39.
Taken in the same sequence, the figures for FATQTEELNKQVVSSSEQLQSYQA [KRT33B] were 4.75 ± 0.24 and 4.64 ± 0.17.
The corresponding values for FCGATIAGLSLLSPSVMRLVHTQE [ALKBH7] are 3.06 ± 0.44 and 2.71 ± 0.96.
On to FDCPSELQHTQELFPQWHLPIKIA [STEAP1], for which the protein stability index by setting is: (treatment: DMSO) 2.78 ± 0.33; (treatment: MLN4924 1 uM, 8 h) 2.79 ± 0.38.
The corresponding values for FDDFVTNLIEKSASLDNGGCALTT [SOAT1] are 3.66 ± 0.27 and 3.62 ± 0.16.
The corresponding values for FDMSRYSSSGYSSAEINQDLNIQL [FAM219A] are 3.06 ± 0.27 and 3.12 ± 0.18.
Taken in the same sequence, the figures for FENMSNDDAVRVLREIVHKPGPIT [DVL3] were 3.65 ± 0.15 and 3.7 ± 0.15.
Take FFINEAMELKVGDFGLAARLEPLE [PLK2]: the protein stability index by setting is: (treatment: DMSO) 2.61 ± 0.14; (treatment: MLN4924 1 uM, 8 h) 2.68 ± 0.18.
Taken in the same sequence, the figures for FFTLDLEHIADALRAIDFGTDEEE [TRIM63] were 3.9 ± 0.63 and 4.27 ± 0.26.
Taken in the same sequence, the figures for FGASAAGGLSPVTNLTVTMDQLQG [CDC25A] were 3.65 ± 0.27 and 3.7 ± 0.46.
The corresponding values for FGYLGDRYNRKYLMCGGIAFWSLV [SPNS1] are 3.1 ± 0.51 and 2.75 ± 0.71.
As to FHAYYYCFITLTTIGFGDYVALQT [KCNK9], the protein stability index is, setting by setting: (treatment: DMSO) 3.27 ± 0.29; (treatment: MLN4924 1 uM, 8 h) 3.34 ± 0.36.
The corresponding values for FIIGELHPDDRPKLNKPPETLITT [CYB5A] are 2.73 ± 0.35 and 2.91 ± 0.4.
The corresponding values for FIYDCDPFTRRYYKEKFGITDLPR [EFHC1] are 2.35 ± 0.37 and 2.15 ± 0.26.
The sequence FKKHDADKVGLITLSDWAAAVESV [PPEF2] returned a protein stability index (treatment: MLN4924 1 uM, 8 h) of 2.64 ± 0.46.
With FNGELPNGRHKIPESQFPEFSTSL [SRPK2], the protein stability index worked out at 3.51 ± 0.22 (treatment: DMSO) and 3.72 ± 0.32 (treatment: MLN4924 1 uM, 8 h).
As to FNYRYFEVEEADGNKQWWFGGGCD [CPOX], the protein stability index (treatment: DMSO) came to 2.48 ± 0.23 and the protein stability index (treatment: MLN4924 1 uM, 8 h) is 2.58 ± 0.28.
The corresponding values for FPEFCSSPSPPVEVKIEEPVSMEM [INTS3] are 4.65 ± 0.32 and 4.82 ± 0.27.
The corresponding values for FPKINHGILYDEEKYKPFSQVPTG [CFHR2] are 2.4 ± 0.28 and 3.36 ± 0.34.
As for FQQNHLFWLQNSSPSSDRVSAIIW [PHTF1], the protein stability index reads like this: (treatment: DMSO) 2.26 ± 0.6; (treatment: MLN4924 1 uM, 8 h) 2.43 ± 0.49.
Taken in the same sequence, the figures for FQVNKLMKKIKKLENDTISKQLTL [CCDC6] were 2.26 ± 0.12 and 2.38 ± 0.33.
The corresponding values for FRFAPNHTKELEDKVIELHKSHRG [EPB41L3] are 2.88 ± 0.58 and 3.2 ± 0.68.
The corresponding values for FRLVEKSCPEGDASECPQATNAKD [PPEF2] are 5.11 ± 0.21 and 5.41 ± 0.28.
Turning to FSDDEEDLNSKGKKREFRFHPIKE [INTS3], the protein stability index reads like this: (treatment: DMSO) 3.48 ± 0.68; (treatment: MLN4924 1 uM, 8 h) 4.04 ± 0.71.
